Data as given in the supplement of paper PMC10065799, “High-throughput profiling of sequence recognition by tyrosine kinases and SH2 domains using bacterial peptide display” (eLife, 2023).

Tests used:
AncSZ = experiment: phosphorylation enrichment, bacterial display (enrichment ratio); higher = better substrate or ligand; peptides without Tyr show the background
Fes = Fes (UniProt P07332); experiment: as above
Hck = Hck (UniProt P08631); experiment: as above
c-Abl (mouse) = experiment: as above
MERTK = MERTK (UniProt Q12866); experiment: as above
EPHB1 = EPHB1 (UniProt P54762); experiment: as above
EPHB2 = EPHB2 (UniProt P29323); experiment: as above
c-Src = experiment: as above
FGFR1 = FGFR1 (UniProt P11362); experiment: as above
Fer (mouse) = experiment: as above
FGFR3 = FGFR3 (UniProt P22607); experiment: as above
Jak2 = Jak2 (UniProt O60674); experiment: as above
Fyn = Fyn (UniProt P06241); experiment: as above
SHP2-C SH2 = experiment: SH2 binding enrichment of the phosphorylated peptide, bacterial display (enrichment ratio); higher = better substrate or ligand; peptides without Tyr show the background
c-Src SH2 = experiment: as above
Grb2 SH2 = Grb2 SH2 (UniProt P62993); experiment: as above
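Throughout, for SH2 binding enrichment of the phosphorylated peptide, bacterial display: peptide library displayed on the E. coli surface as eCPX fusions, selected cells deep-sequenced, score is each peptide's frequency after selection divided by its frequency in the input.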
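Throughout, for phosphorylation enrichment, bacterial display: 11-residue human phosphosite peptides and single-mutation variants displayed on the E. coli surface, counted by deep sequencing, each peptide's frequency after selection divided by its frequency in the unselected input library; frequency after pTyr selection over input frequency; kinase dosed for 20-30% of maximal phosphorylation in three min.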

Chain of Fes (P07332 whole entry, looked up): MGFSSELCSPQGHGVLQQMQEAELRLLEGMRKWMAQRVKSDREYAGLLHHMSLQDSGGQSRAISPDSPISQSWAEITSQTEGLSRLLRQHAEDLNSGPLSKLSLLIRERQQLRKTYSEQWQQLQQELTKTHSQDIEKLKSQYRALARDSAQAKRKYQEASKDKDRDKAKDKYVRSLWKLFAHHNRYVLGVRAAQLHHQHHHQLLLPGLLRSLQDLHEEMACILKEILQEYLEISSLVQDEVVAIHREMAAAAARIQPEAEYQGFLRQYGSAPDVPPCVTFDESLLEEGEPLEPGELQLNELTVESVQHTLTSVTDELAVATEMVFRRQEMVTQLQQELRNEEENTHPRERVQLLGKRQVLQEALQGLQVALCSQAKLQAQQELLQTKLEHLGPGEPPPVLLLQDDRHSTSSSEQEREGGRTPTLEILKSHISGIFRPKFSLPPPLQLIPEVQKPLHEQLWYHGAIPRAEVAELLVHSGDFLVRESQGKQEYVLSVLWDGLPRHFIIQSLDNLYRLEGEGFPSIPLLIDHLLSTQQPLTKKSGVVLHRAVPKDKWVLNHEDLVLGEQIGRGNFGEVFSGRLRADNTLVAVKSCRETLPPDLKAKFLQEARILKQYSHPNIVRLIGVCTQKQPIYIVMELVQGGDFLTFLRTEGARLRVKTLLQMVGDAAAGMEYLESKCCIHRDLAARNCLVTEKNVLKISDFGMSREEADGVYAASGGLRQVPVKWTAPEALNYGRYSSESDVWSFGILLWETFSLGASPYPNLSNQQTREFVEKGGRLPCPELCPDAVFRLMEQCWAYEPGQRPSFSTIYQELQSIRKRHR
Chain of MERTK (Q12866 whole entry, looked up): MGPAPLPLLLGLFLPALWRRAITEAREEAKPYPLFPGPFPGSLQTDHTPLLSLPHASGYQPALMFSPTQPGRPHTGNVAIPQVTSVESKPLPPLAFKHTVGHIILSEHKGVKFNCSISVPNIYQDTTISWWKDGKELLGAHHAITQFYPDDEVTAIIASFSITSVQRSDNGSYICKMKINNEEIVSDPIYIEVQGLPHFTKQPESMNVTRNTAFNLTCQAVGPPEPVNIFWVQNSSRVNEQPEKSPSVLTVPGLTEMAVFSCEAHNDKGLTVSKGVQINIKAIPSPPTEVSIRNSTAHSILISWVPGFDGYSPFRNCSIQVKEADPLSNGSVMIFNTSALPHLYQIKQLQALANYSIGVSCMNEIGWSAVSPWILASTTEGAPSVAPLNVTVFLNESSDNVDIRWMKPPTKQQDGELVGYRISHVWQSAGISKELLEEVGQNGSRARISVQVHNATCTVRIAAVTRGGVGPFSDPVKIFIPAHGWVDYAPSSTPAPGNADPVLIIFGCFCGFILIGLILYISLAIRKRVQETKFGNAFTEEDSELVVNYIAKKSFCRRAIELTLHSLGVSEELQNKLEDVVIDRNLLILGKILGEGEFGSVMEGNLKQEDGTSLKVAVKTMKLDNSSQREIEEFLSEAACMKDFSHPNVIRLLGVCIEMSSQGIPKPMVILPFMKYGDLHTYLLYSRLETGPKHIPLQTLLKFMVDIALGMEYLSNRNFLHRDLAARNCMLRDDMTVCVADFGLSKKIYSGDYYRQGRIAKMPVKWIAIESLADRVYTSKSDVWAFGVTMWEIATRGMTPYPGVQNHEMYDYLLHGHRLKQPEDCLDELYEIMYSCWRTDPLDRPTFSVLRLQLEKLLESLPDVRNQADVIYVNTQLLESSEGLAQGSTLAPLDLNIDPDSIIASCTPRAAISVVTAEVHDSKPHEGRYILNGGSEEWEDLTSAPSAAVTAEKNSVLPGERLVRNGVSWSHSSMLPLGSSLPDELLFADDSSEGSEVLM
Chain of EPHB2 (P29323 whole entry, looked up): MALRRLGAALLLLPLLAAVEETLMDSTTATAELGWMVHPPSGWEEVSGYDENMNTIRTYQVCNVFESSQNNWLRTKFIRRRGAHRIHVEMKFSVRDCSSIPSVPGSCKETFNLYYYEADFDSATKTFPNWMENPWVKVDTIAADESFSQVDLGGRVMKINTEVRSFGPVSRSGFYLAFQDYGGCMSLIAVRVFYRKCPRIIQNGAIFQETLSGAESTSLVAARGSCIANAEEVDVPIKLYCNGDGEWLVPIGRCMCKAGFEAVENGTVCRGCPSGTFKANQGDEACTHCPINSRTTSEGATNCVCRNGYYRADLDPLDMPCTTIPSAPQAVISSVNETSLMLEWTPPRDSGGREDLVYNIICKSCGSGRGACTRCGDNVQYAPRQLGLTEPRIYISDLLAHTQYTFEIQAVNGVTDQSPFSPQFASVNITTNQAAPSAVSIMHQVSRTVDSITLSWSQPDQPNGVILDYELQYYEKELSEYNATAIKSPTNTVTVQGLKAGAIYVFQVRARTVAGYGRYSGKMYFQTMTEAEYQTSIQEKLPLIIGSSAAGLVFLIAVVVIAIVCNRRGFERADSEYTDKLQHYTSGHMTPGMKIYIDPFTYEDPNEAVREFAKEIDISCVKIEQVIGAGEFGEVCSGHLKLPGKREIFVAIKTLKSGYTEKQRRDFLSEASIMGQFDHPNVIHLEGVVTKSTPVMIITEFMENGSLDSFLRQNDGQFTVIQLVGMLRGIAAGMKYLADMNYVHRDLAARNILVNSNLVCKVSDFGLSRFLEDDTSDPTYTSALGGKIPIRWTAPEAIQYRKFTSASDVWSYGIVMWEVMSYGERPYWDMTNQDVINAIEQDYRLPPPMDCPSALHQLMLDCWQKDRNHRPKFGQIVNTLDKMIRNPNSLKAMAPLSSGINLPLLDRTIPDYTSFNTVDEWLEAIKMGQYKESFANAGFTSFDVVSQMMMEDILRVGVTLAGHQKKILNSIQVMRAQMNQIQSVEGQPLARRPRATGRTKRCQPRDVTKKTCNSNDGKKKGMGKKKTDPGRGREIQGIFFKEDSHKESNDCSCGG
Chain of Hck (P08631 whole entry, looked up): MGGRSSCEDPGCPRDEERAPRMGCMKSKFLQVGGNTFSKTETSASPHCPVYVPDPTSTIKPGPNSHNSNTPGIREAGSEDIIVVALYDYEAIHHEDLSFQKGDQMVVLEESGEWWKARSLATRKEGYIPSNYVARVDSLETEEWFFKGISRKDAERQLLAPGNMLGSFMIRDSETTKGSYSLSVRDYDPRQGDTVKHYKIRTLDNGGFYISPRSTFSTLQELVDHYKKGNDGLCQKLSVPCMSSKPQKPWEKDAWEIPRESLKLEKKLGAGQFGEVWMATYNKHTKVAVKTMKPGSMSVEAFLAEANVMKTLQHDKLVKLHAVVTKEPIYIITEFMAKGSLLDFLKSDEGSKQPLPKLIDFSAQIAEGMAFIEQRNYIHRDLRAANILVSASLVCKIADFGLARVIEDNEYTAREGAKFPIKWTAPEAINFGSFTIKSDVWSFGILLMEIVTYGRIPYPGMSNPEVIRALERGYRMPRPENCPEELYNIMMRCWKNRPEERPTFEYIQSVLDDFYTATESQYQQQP
Chain of FGFR1 (P11362 whole entry, looked up): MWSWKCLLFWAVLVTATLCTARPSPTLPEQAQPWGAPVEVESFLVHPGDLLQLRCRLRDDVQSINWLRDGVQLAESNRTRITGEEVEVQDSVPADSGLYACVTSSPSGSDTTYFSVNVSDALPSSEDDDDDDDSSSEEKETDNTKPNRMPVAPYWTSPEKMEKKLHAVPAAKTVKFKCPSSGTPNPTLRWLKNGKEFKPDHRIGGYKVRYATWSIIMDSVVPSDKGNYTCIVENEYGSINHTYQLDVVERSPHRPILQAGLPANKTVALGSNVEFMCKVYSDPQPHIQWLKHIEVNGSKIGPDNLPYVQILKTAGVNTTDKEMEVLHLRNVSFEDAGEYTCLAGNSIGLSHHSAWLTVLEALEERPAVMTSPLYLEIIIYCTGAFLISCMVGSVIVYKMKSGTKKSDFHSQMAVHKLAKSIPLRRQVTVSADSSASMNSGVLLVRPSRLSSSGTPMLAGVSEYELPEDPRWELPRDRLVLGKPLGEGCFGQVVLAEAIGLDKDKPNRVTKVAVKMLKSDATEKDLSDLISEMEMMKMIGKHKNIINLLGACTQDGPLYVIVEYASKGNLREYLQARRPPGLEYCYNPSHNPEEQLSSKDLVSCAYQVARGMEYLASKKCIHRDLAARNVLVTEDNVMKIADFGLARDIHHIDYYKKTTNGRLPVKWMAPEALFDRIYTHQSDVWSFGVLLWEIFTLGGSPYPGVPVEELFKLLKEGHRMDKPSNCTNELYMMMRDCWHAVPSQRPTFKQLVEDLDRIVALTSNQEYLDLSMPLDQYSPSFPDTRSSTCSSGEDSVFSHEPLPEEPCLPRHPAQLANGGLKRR
Chain of Fyn (P06241 whole entry, looked up): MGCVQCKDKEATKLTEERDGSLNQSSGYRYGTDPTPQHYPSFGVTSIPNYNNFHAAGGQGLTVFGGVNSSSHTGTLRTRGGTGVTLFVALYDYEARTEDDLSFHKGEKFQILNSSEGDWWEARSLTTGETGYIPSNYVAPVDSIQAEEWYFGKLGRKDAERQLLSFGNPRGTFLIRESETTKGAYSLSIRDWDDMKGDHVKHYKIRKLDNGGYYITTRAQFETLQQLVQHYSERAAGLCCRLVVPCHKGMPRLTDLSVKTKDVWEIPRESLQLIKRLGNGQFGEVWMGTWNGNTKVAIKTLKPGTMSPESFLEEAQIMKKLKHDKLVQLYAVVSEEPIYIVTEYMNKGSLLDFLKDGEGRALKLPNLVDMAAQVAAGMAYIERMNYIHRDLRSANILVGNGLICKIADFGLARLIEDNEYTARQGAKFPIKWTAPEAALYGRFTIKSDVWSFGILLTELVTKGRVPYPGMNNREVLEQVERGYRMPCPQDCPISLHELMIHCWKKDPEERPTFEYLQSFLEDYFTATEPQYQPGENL

| Sequence | SH2 binding enrichment (SHP2-C SH2) | SH2 binding enrichment (c-Src SH2) | SH2 binding enrichment (Grb2 SH2) | phosphorylation enrichment (AncSZ) | phosphorylation enrichment (Fes) | phosphorylation enrichment (Hck) | phosphorylation enrichment (c-Abl (mouse)) | phosphorylation enrichment (MERTK) | phosphorylation enrichment (EPHB1) | phosphorylation enrichment (EPHB2) | phosphorylation enrichment (c-Src) | phosphorylation enrichment (FGFR1) | phosphorylation enrichment (Fer (mouse)) | phosphorylation enrichment (FGFR3) | phosphorylation enrichment (Jak2) | phosphorylation enrichment (Fyn) |
| --- | --- | --- | --- | --- | --- | --- | --- | --- | --- | --- | --- | --- | --- | --- | --- | --- |
| RHSGSYLVTSV [APC_Y2838] | 0.914 | 0.604 | 0.791 | 0.759 | 0.863 | 0.616 | 0.611 | 0.682 | 0.505 | 0.559 | 0.463 | 0.438 | 0.51 | 0.451 | 0.963 | 0.431 |
| TKFVAYIESQG [KDM4B_Y34_N29T_YF] | 0.703 | 0.6 | 0.736 | 0.974 | 1.02 | 0.578 | 0.64 | 0.307 | 0.499 | 0.56 | 0.396 | 0.51 | 0.403 | 0.685 | 1.12 | 0.497 |
| QDEHGYISRCF [HSPB1_Y133] | 0.763 | 0.445 | 0.662 | 1.23 | 1.19 | 0.838 | 0.861 | 0.396 | 0.718 | 0.923 | 0.418 | 0.555 | 0.601 | 0.792 | 0.965 | 0.741 |
| DFLEKYFKFGS [NNMT_Y24_YF] | 0.386 | 0.579 | 0.764 | 1.12 | 1.41 | 0.521 | 0.936 | 0.564 | 0.525 | 0.587 | 0.627 | 0.491 | 0.514 | 0.826 | 1.8 | 0.437 |
| FISLIYTNFEV [GSTP1_Y109_A114V_YF] | 0.882 | 0.611 | 0.774 | 2.18 | 1.77 | 2.7 | 3.47 | 4.4 | 1.07 | 0.903 | 5.5 | 0.839 | 5.37 | 1.21 | 1.79 | 3.99 |
| SHNKFYMLVAR [MFSD8_Y134_YF] | 1.72 | 1.04 | 1.4 | 1.15 | 1.15 | 0.475 | 0.705 | 0.479 | 0.673 | 0.607 | 0.36 | 0.532 | 0.607 | 0.875 | 1.1 | 0.452 |
| HGDDDYDDPEL [CLNK_Y69_S65G] | 0.551 | 0.565 | 0.99 | 1.91 | 2 | 0.743 | 0.745 | 0.667 | 0.756 | 0.753 | 0.477 | 0.91 | 0.717 | 1.02 | 1.39 | 0.69 |
| DLLNSYIENEG [HSPA4L_Y600] | 0.656 | 0.693 | 1.04 | 0.996 | 0.999 | 0.484 | 0.585 | 0.375 | 0.573 | 0.561 | 0.343 | 0.528 | 0.545 | 0.875 | 1.17 | 0.53 |
| PINLYYLMDLS [ITGB2_Y131_D128N] | 1.16 | 0.624 | 1.22 | 3.58 | 2.62 | 4.27 | 1.44 | 11.6 | 8.27 | 6.74 | 4.42 | 16.3 | 5.63 | 15.7 | 6.89 | 4.6 |
| SWSTSYSGYRC [NKAPL_Y91_Y96C] | 0.798 | 0.63 | 0.914 | 0.944 | 0.993 | 0.552 | 0.751 | 0.443 | 0.551 | 0.547 | 0.848 | 0.585 | 0.532 | 0.62 | 0.98 | 0.462 |
| LNFNEYFRDLN [HPRT1_Y198_D194N_YF] | 0.955 | 0.608 | 1.11 | 1.78 | 2.1 | 0.99 | 2.15 | 0.972 | 1.23 | 1.01 | 1.15 | 1.18 | 1.03 | 0.803 | 2.25 | 0.866 |
| LENSTYQFIHV [CRB1_Y760_R764H_YF] | 0.652 | 0.456 | 0.94 | 1.77 | 2.22 | 8.87 | 1.56 | 10 | 9.73 | 2.92 | 4.21 | 7.91 | 24.8 | 4.82 | 1.19 | 3.24 |

Now from value to sequence, other results behind:

| SH2 binding enrichment (SHP2-C SH2) | SH2 binding enrichment (c-Src SH2) | SH2 binding enrichment (Grb2 SH2) | Sequence | phosphorylation enrichment (AncSZ) | phosphorylation enrichment (Fes) | phosphorylation enrichment (Hck) | phosphorylation enrichment (c-Abl (mouse)) | phosphorylation enrichment (MERTK) | phosphorylation enrichment (EPHB1) | phosphorylation enrichment (EPHB2) | phosphorylation enrichment (c-Src) | phosphorylation enrichment (FGFR1) | phosphorylation enrichment (Fer (mouse)) | phosphorylation enrichment (FGFR3) | phosphorylation enrichment (Jak2) | phosphorylation enrichment (Fyn) |
| --- | --- | --- | --- | --- | --- | --- | --- | --- | --- | --- | --- | --- | --- | --- | --- | --- |
| 0.607 | 0.337 | 0.805 | NNFGNYNNQSS [HNRNPA1_Y318_D314N] | 0.564 | 0.632 | 0.354 | 0.626 | 0.326 | 0.366 | 0.393 | 0.32 | 0.381 | 0.379 | 0.708 | 0.432 | 0.382 |
| 1.7 | 1.67 | 1.98 | RCKNHYAAFSV [C1QTNF1_Y145_S143N] | 0.538 | 0.749 | 0.615 | 0.72 | 0.572 | 0.286 | 0.562 | 0.633 | 0.488 | 0.488 | 0.56 | 0.63 | 0.415 |
| 1.67 | 1.48 | 1.61 | CTTIHYNFRCN [TP53_Y234_M237R_YF] | 0.763 | 0.804 | 0.439 | 0.584 | 0.386 | 0.536 | 0.499 | 0.469 | 0.487 | 0.462 | 0.637 | 0.56 | 0.471 |
| 3.41 | 1.1 | 1.47 | ISHVAYLVLGK [TRRAP_Y892_R893L] | 0.95 | 1.07 | 0.485 | 0.588 | 0.53 | 0.805 | 0.5 | 0.454 | 0.535 | 0.505 | 0.75 | 0.996 | 0.507 |
| 0.436 | 0.468 | 0.637 | EGGFAYVPLKD [PRIM2_Y208_D204G] | 1.19 | 1.05 | 0.404 | 0.699 | 0.371 | 0.466 | 0.567 | 0.419 | 0.399 | 0.379 | 0.497 | 1.12 | 0.369 |
